In patent JP2018082720A (dated 2018):
Where “and” joins values, the source holds several entries; their conditions need not be identical. Identical values can stand only once.

Tests used:
[1] = target: T1, human MMP9 (human, UniProt P14780 20-707, limits assumed); assay: SPR
T1 construct: also called ヒトMMP9; matrix metalloproteinase-9

[2] = target: T1, human MMP9; assay: ELISA
[3] = target: T2, cynomolgus monkey MMP9 (cynomolgus monkey, UniProt A0A2K5UU71 20-706); assay: ELISA
T2 construct: also called カニクイザルMMP9; recombinant cynomolgus MMP9

[4] = target: T3, rat MMP9 (rat, UniProt P50282 20-708, limits assumed); assay: ELISA
T3 construct: also called ラットMMP9; recombinant rat MMP9

[5] = target: T1, human MMP9; assay: cell-based or functional assay
[6] = target: T1, human MMP9; assay: direct binding assay and SPR
[7] = target: T4, mouse MMP9 (mouse, UniProt P41245 20-730, limits assumed); assay: ELISA
T4 construct: The immunogen for AB0046 was a pro/catalytic domain fragment of mouse MMP9; also called マウスMMP9

[8] = target: T4, mouse MMP9; assay: cell-based or functional assay

T1 sequence (P14780 20-707 Q279R/R574P limits assumed): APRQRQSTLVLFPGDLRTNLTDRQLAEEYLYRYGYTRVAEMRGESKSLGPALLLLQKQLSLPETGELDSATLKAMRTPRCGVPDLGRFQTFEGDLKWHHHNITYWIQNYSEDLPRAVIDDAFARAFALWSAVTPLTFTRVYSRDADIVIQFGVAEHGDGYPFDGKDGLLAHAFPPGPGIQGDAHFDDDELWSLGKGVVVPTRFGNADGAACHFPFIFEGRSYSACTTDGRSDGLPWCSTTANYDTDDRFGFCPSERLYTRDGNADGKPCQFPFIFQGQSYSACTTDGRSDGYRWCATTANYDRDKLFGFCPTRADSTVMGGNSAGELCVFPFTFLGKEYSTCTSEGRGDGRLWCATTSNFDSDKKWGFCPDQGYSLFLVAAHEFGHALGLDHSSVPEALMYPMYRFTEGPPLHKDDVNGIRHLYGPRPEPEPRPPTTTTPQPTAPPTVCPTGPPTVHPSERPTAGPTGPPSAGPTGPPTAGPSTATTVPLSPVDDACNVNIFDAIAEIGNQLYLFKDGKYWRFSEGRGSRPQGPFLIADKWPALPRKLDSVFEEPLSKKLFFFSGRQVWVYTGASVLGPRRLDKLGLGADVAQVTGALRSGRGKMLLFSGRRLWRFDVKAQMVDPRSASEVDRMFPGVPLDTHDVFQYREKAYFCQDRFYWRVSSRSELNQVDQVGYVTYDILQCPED
T4 sequence (P41245 20-730 limits assumed): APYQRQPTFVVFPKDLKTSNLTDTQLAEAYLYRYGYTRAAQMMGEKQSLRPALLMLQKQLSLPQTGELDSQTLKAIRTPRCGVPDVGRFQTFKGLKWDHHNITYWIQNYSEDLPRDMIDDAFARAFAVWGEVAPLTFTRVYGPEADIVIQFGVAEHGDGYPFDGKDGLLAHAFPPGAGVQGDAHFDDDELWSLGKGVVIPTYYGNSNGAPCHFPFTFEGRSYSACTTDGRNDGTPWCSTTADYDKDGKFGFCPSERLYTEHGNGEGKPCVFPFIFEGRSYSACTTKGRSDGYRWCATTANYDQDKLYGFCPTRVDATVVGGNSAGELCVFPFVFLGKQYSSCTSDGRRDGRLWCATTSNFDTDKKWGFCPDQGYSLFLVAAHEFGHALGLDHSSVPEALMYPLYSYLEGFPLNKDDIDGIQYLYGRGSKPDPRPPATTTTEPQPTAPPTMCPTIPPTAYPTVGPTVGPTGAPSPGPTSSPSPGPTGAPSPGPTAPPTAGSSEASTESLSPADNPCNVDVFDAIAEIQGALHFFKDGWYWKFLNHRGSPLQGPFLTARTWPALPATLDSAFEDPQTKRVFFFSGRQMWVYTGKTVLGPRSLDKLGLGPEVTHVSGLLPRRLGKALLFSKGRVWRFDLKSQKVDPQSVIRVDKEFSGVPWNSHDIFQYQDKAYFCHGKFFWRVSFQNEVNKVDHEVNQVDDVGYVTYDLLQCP
T3 sequence (P50282 20-708 limits assumed): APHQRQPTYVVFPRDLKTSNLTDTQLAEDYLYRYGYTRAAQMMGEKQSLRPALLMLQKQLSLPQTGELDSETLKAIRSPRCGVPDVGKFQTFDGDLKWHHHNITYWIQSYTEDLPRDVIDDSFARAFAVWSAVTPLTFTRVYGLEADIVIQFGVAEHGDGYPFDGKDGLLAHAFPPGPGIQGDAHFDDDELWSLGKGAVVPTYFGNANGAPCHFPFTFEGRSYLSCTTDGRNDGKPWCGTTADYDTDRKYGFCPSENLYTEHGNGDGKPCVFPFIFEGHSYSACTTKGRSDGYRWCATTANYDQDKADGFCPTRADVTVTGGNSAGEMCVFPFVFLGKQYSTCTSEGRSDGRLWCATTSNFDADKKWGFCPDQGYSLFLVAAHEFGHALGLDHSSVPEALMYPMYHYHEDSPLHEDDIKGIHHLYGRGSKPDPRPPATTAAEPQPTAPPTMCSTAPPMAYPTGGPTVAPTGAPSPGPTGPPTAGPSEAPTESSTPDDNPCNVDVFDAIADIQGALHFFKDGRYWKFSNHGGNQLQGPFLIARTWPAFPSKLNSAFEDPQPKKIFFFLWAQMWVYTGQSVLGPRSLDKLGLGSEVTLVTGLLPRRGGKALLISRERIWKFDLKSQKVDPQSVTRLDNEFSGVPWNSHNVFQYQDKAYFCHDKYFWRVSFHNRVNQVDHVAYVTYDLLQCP
T2 sequence (A0A2K5UU71 entry or part of it): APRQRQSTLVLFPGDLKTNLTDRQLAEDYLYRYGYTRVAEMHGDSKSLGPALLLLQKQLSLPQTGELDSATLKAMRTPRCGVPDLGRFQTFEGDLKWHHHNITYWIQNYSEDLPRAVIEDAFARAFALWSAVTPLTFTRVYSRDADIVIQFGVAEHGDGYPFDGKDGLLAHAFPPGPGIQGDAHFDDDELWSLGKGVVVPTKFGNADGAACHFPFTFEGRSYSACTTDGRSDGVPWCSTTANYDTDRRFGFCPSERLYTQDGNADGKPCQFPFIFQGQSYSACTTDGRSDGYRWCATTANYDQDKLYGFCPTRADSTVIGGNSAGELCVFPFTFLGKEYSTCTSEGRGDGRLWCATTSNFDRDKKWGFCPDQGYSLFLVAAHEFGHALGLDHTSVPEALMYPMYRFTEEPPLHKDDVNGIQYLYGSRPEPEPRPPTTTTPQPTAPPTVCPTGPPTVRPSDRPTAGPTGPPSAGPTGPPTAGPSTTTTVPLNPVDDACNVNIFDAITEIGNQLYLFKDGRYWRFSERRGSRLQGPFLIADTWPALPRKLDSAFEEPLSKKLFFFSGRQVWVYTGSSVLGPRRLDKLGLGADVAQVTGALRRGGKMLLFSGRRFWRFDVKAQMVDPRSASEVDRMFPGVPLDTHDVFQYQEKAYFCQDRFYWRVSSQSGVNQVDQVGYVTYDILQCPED

Binder	Kd [1] [nM]	Kd [2]	Kd [3] [nM]	Kd [4] [nM]	IC50, MMP9-mediated cleavage of fluorogenic peptide substrate Mca-PLGL-Dpa-AR-NH2 [5] [nM]	IC50, MMP9 enzyme assay under steady state [5]	Kd [6] [nM]	Kd [7] [nM]	IC50, MMP9-mediated cleavage of fluorogenic peptide substrate Mca-PLGL-Dpa-AR-NH2 [8] [nM]
AB0045 (antibody, V domains shown, Humanized, modified human IgG4 (S241P) / kappa; also called AB0045; humanized variant anti-MMP9 antibody) VH: QVQLQESGPGLVKPSETLSLTCTVSGFSLLSYGVHWVRQPPGKGLEWLGVIWTGGTTNYNSALMSRFTISKDDSKNTVYLKMNSLKTEDTAIYYCARYYYGMDYWGQGTLVTVSS VL: DIQMTQSPSSLSASVGDRVTITCKASQDVRNTVAWYQQKPGKAPKLLIYSSSYRNTGVPDRFSGSGSGTDFTLTISSLQAEDVAVYYCQQHYITPYTFGGGTKVEIKR	0.0088	< 0.4 nM and 0.168 nM	< 0.4	< 0.4	0.691	0.148 nM and 0.161 nM and 0.158 nM	~0.001		
AB0046 (antibody, V domains shown, Mouse IgG1 / kappa; also called AB0046; anti-mouse MMP9 antibody) VH: QVQLQQPGSVLVRPGASVKLSCTASGYTFTSYWMNWVKQRPGQGLEWIGEIYPISGRTNYNEKFKVKATLTVDTSSSTAYMDLNSLTSEDSAVYYCARSRANWDDYWGQGTTLTVSS VL: DIQMTQTTSSLSASLGDRVTISCSASQGISNYLNWYQQKPDGTFKLLIYYTSILHSGVPSRFSGSGSGTDYSLTISNLEPEDIATYYCQQYGWLPRTFGGGTKLEIKR								0.218	0.352
AB0041 (antibody, V domains shown) VH: QVQLKESGPGLVAPSQSLSITCTVSGFSLLSYGVHWVRQPPGKGLEWLGVIWTGGTTNYNSALMSRLSISKDDSKSQVFLKMNSLQTDDTAIYYCARYYYGMDYWGQGTSVTVSS VL: DIVMTQSHKFMSTSVGDRVSITCKASQDVRNTVAWYQQKTGQSPKLLIYSSSYRNTGVPDRFTGSGSGTDFTFTISSVQAEDLAVYFCQQHYITPYTFGGGTKLEIKR	0.0004		< 0.4	< 0.4	0.569				
